Measurements published in patent US20250002557A1.

Target: T1, PDGF-CC, Q9NRA1
T1 chain: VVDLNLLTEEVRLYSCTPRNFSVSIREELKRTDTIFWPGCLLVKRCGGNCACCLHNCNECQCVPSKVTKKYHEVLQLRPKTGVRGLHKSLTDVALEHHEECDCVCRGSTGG
Assay: SPR, PDGF coupled to CM5 chip, VEGFR2-Fc in flow
Settings: remark: other sources report otherwise

- Kd: 73.6 nM
B1: VEGFR2-Fc (Met1-Glu764), P35968 20-764 (Fc fusion, not shown: a dimerising Fc or GST)
chain: ASVGLPSVSLDLPRLSIQKDILTIKANTTLQITCRGQRDLDWLWPNNQSGSEQRVEVTECSDGLFCKTLTIPKVIGNDTGAYKCFYRETDLASVIYVYVQDYRSPFIASVSDQHGVVYITENKNKTVVIPCLGSISNLNVSLCARYPEKRFVPDGNRISWDSKKGFTIPSYMISYAGMVFCEAKINDESYQSIMYIVVVVGYRIYDVVLSPSHGIELSVGEKLVLNCTARTELNVGIDFNWEYPSSKHQHKKLVNRDLKTQSGSEMKKFLSTLTIDGVTRSDQGLYTCAASSGLMTKKNSTFVRVHEKPFVAFGSGMESLVEATVGERVRIPAKYLGYPPPEIKWYKNGIPLESNHTIKAGHVLTIMEVSERDTGNYTVILTNPISKEKQSHVVSLVVYVPPQIGEKSLISPVDSYQYGTTQTLTCTVYAIPPPHHIHWYWQLEEECANEPSQAVSVTNPYPCEEWRSVEDFQGGNKIEVNKNQFALIEGKNKTVSTLVIQAANVSALYKCEAVNKVGRGERVISFHVTRGPEITLQPDMQPTEQESVSLWCTADRSTFENLTWYKLGPQPLPIHVGELPTPVCKNLDTLWKLNATMFSNSTNDILIMELKNASLQDQGDYVCLAQDRKTKKRHCVVRQLTVLERVAPTITGNLENQTTSIGESIEVSCTASGNPPPQIMWFKDNETLVEDSGIVLKDGNRNLTIRRVRKEDEGLYTCQACSVLGCAKVEAFFIIEGAQEKTNLE
